Paper PMC6974733, “Rap1‐mediated nucleosome displacement can regulate gene expression in senescent cells without impacting the pace of senescence”
Blank lines part the entries; values can stand above or below the binder they belong to.

Legend:
[1] = target: histone H3/H4 tetramers, P61830;P02309; assay: GST pull-down, H3 immunoblot quantitation; conditions: chain shown with the change, read off a plot; for response: 2 μM Rap1 truncated constructs, 2 μM H3/H4, 400 mM NaCl, N = 3, scale: relative H3 signal; for ratio to parent: 0.5 μM GST-SANT, 0.5 μM histones, 400 mM NaCl, N = 2, parent: est. 1.0
Rap1SHY [2] = target: T1, Rap1SHY (Saccharomyces cerevisiae? (budding …, UniProt P11938 1-827, S392A;H393A;Y394A)); assay: EMSA; 5-50 nM protein; affinity similar to Rap1; 20 mM Hepes-KOH pH 8, 100 mM KCl, 10 ug/ml BSA, 1 mM EDTA, 2 mM MgCl2, 5% glycerol, 30 min at room temperature; 0.5 nM 32P duplex; 6% gel run at 4 C; concentrations of active protein (~85% active); conditions: protein: recombinant; tags: N-terminal GST, C-terminal 6xHis (pGST-RAP1 SHY-6xHis); label: 32P 5' end label on one strand (PNK); blunt
T1 sequence: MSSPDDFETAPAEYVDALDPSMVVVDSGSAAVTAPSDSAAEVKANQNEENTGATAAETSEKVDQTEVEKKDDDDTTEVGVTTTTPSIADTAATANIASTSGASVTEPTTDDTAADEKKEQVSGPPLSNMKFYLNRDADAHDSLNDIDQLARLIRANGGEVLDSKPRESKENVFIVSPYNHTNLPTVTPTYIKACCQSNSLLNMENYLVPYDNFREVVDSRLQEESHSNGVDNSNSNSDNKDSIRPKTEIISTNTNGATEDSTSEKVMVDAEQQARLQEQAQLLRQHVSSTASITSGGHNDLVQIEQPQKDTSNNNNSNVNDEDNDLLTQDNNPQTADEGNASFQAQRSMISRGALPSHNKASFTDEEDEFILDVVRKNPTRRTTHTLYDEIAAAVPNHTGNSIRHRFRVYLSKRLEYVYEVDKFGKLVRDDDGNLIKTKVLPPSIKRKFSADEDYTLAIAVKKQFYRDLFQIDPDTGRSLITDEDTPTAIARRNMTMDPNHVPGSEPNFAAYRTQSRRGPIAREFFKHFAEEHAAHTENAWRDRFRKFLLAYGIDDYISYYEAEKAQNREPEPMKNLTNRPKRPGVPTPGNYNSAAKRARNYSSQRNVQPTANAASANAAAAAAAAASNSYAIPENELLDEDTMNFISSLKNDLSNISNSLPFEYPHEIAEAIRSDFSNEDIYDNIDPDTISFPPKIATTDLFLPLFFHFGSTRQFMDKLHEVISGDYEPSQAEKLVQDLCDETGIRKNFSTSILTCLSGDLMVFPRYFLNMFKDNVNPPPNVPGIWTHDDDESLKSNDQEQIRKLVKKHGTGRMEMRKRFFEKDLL

Rap1 [3] = target: T2, Rap1 (Saccharomyces cerevisiae? (budding …, UniProt P11938 1-827)); assay: EMSA; 5-50 nM protein; affinity similar to Rap1SHY; 20 mM Hepes-KOH pH 8, 100 mM KCl, 10 ug/ml BSA, 1 mM EDTA, 2 mM MgCl2, 5% glycerol, 30 min at room temperature; 0.5 nM 32P duplex; 6% gel run at 4 C; concentrations of active protein (~85% active); conditions: protein: recombinant; tags: N-terminal GST, C-terminal 6xHis (Ni-NTA and GST resin purified); label: 32P 5' end label on one strand (PNK); blunt
T2 sequence: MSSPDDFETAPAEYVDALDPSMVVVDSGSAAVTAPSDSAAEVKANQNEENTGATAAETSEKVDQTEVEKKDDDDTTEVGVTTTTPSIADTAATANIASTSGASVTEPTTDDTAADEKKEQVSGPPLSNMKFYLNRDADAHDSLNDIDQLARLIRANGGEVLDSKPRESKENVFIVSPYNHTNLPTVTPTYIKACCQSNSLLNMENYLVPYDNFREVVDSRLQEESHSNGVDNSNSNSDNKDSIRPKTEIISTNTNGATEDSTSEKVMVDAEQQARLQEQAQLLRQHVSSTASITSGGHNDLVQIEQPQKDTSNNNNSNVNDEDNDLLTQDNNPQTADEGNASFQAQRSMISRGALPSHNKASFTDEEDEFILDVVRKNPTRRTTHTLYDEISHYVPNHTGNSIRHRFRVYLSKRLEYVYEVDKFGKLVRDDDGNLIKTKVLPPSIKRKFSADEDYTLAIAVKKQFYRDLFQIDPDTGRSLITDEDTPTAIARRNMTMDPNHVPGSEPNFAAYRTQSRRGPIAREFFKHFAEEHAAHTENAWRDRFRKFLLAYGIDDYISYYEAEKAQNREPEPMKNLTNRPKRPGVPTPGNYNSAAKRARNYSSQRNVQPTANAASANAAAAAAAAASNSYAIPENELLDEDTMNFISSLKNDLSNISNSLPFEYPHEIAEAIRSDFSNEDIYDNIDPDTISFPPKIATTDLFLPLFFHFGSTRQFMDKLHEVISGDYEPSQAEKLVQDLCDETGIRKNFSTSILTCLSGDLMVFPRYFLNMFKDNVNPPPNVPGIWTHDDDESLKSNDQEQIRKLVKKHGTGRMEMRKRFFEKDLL

Rap1SHY [4] = target: T1, Rap1SHY; assay: EMSA; 0.5-100 nM protein; higher affinity than Rap1; 20 mM Hepes-KOH pH 8, 100 mM KCl, 10 ug/ml BSA, 1 mM EDTA, 2 mM MgCl2, 5% glycerol, 30 min at room temperature; 0.5 nM 32P duplex; 6% gel run at 4 C; concentrations of active protein (~85% active); conditions: protein: recombinant; tags: N-terminal GST, C-terminal 6xHis (pGST-RAP1 SHY-6xHis); label: 32P 5' end label on one strand (PNK); blunt
Rap1 [5] = target: T2, Rap1; assay: EMSA; 0.5-100 nM protein; lower affinity than Rap1SHY; 20 mM Hepes-KOH pH 8, 100 mM KCl, 10 ug/ml BSA, 1 mM EDTA, 2 mM MgCl2, 5% glycerol, 30 min at room temperature; 0.5 nM 32P duplex; 6% gel run at 4 C; concentrations of active protein (~85% active); conditions: protein: recombinant; tags: N-terminal GST, C-terminal 6xHis (Ni-NTA and GST resin purified); label: 32P 5' end label on one strand (PNK); blunt
Rap1SHY [6] = target: T1, Rap1SHY; assay: EMSA; 5-500 nM protein; affinity similar to Rap1; 20 mM Hepes-KOH pH 8, 100 mM KCl, 10 ug/ml BSA, 1 mM EDTA, 2 mM MgCl2, 5% glycerol, 30 min at room temperature; 0.5 nM 32P duplex; 6% gel run at 4 C; concentrations of active protein (~85% active); conditions: protein: recombinant; tags: N-terminal GST, C-terminal 6xHis (pGST-RAP1 SHY-6xHis); label: 32P 5' end label on one strand (PNK); blunt
Rap1 [7] = target: T2, Rap1; assay: EMSA; 5-500 nM protein; affinity similar to Rap1SHY; 20 mM Hepes-KOH pH 8, 100 mM KCl, 10 ug/ml BSA, 1 mM EDTA, 2 mM MgCl2, 5% glycerol, 30 min at room temperature; 0.5 nM 32P duplex; 6% gel run at 4 C; concentrations of active protein (~85% active); conditions: protein: recombinant; tags: N-terminal GST, C-terminal 6xHis (Ni-NTA and GST resin purified); label: 32P 5' end label on one strand (PNK); blunt

response ([1]; parent: est. 1.3): 0.71
B1: GST-Rap1^643Δ S392A; H393A; Y394A (protein)
chain: MSSPDDFETAPAEYVDALDPSMVVVDSGSAAVTAPSDSAAEVKANQNEENTGATAAETSEKVDQTEVEKKDDDDTTEVGVTTTTPSIADTAATANIASTSGASVTEPTTDDTAADEKKEQVSGPPLSNMKFYLNRDADAHDSLNDIDQLARLIRANGGEVLDSKPRESKENVFIVSPYNHTNLPTVTPTYIKACCQSNSLLNMENYLVPYDNFREVVDSRLQEESHSNGVDNSNSNSDNKDSIRPKTEIISTNTNGATEDSTSEKVMVDAEQQARLQEQAQLLRQHVSSTASITSGGHNDLVQIEQPQKDTSNNNNSNVNDEDNDLLTQDNNPQTADEGNASFQAQRSMISRGALPSHNKASFTDEEDEFILDVVRKNPTRRTTHTLYDEIAAAVPNHTGNSIRHRFRVYLSKRLEYVYEVDKFGKLVRDDDGNLIKTKVLPPSIKRKFSADEDYTLAIAVKKQFYRDLFQIDPDTGRSLITDEDTPTAIARRNMTMDPNHVPGSEPNFAAYRTQSRRGPIAREFFKHFAEEHAAHTENAWRDRFRKFLLAYGIDDYISYYEAEKAQNREPEPMKNLTNRPKRPGVPTPGNYNSAAKRARNYSSQRNVQPTANAASANAAAAAAAAASNSYAIPENELLDEDT

response ([1]; parent: est. 0.68): 0.47
B2: GST-Rap1^CΔ, P11938 S392A; H393A; Y394A (protein)
chain: MSSPDDFETAPAEYVDALDPSMVVVDSGSAAVTAPSDSAAEVKANQNEENTGATAAETSEKVDQTEVEKKDDDDTTEVGVTTTTPSIADTAATANIASTSGASVTEPTTDDTAADEKKEQVSGPPLSNMKFYLNRDADAHDSLNDIDQLARLIRANGGEVLDSKPRESKENVFIVSPYNHTNLPTVTPTYIKACCQSNSLLNMENYLVPYDNFREVVDSRLQEESHSNGVDNSNSNSDNKDSIRPKTEIISTNTNGATEDSTSEKVMVDAEQQARLQEQAQLLRQHVSSTASITSGGHNDLVQIEQPQKDTSNNNNSNVNDEDNDLLTQDNNPQTADEGNASFQAQRSMISRGALPSHNKASFTDEEDEFILDVVRKNPTRRTTHTLYDEIAAAVPNHTGNSIRHRFRVYLSKRLEYVYEVDKFGKLVRDDDGNLIKTKVLPPSIKRKFSADEDYTLAIAVKKQFYRDLFQIDPDTGRSLITDEDTPTAIARRNMTMDPNHVPGSEPNFAAYRTQSRRGPIAREFFKHFAEEHAAHTENAWRDRFRKFLLAYGIDDYISYYEAEKAQNREPEPMKNLTNRPKRPGVPTPGNYNSAAKRAR

B3: TEF2 promoter Rap1 site (dsDNA)
DNA 1: TGTTGCACCCACACATTTA
DNA 2: TAAATGTGTGGGTGCAACA
binding result (Rap1SHY [2]): binds | binding result (Rap1 [3]): binds

ratio to parent [1]: 0.82
B4: GST-SANT, P11938 D389A; E390A; I391A (protein)
chain: KASFTDEEDEFILDVVRKNPTRRTTHTLYAAASHYVPNHTGNSIRHRFRVY

ratio to parent [1]: 0.97
B5: GST-SANT, P11938 N401A; S402A; I403A (protein)
chain: KASFTDEEDEFILDVVRKNPTRRTTHTLYDEISHYVPNHTGAAARHRFRVY

ratio to parent [1]: 0.62
B6: GST-SANT, P11938 H398A; T399A; G400A (protein)
chain: KASFTDEEDEFILDVVRKNPTRRTTHTLYDEISHYVPNAAANSIRHRFRVY

ratio to parent [1]: 0.21
B7: GST-SANT, P11938 S392A; H393A; Y394A (protein)
chain: KASFTDEEDEFILDVVRKNPTRRTTHTLYDEIAAAVPNHTGNSIRHRFRVY

B8: TeloA telomeric sequence (dsDNA)
DNA 1: GCCGCACACCCACACACCAGTG
DNA 2: CACTGGTGTGTGGGTGTGCGGC
binding result (Rap1SHY [4]): binds | binding result (Rap1 [5]): binds

B9: GAC1 NRTS promoter (dsDNA)
DNA 1: AATAATACATCACATTAACTGTCTATAAGAGGCTGGTAC
DNA 2: GTACCAGCCTCTTATAGACAGTTAATGTGATGTATTATT
dissociation constant (Kd) (Rap1SHY [6]): ~10 fold vs TEF2 (printed: Kd approximately 10-fold lower than in B; titration range suggests affinity is meant) | dissociation constant (Kd) (Rap1 [7]): ~10 fold vs TEF2 (printed: Kd approximately 10-fold lower than in B; titration range suggests affinity is meant)
